Laboratory results taken from article PMC4577212, “X-Ray Structure and Mutagenesis Studies of the N-Isopropylammelide Isopropylaminohydrolase, AtzC” (PLoS ONE, 2015).

Substrate: Nc1nc(O)nc(O)n1
Assay: purified protein
Details: 200 mM sodium phosphate pH 7.5, glycerol, 301 K, 28.0 °C

B1: AtzC (N-isopropylammelide isopropylaminohydrolase) (Pseudomonas sp. ADP) (protein)
chain: MSKDFDLIIRNAYLSEKDSVYDIGIVGDRIIKIEAKIEGTVKDEIDAKGNLVSPGFVDAHTHMDKSFTSTGERLPKFWSRPYTRDAAIEDGLKYYKNATHEEIKRHVIEHAHMQVLHGTLYTRTHVDVDSVAKTKAVEAVLEAKEELKDLIDIQVVAFAQSGFFVDLESESLIRKSLDMGCDLVGGVDPATRENNVEGSLDLCFKLAKEYDVDIDYHIHDIGTVGVYSINRLAQKTIENGYKGRVTTSHAWCFADAPSEWLDEAIPLYKDSGMKFVTCFSSTPPTMPVIKLLEAGINLGCASDNIRDFWVPFGNGDMVQGALIETQRLELKTNRDLGLIWKMITSEGARVLGIEKNYGIEVGKKADLVVLNSLSPQWAIIDQAKRLCVIKNGRIIVKDEVIVA
**Q.** With B1 as the protein, how does the Km read?
**A.** 3.1 ± 0.2 mM

**Q.** And the kcat?
**A.** 26.2 ± 1.8 s⁻¹

**Q.** What about the kcat/Km of the same protein?
**A.** 8500 M⁻¹ s⁻¹
